Results reported in PMC12081870 (Communications Biology, 2025).

Assays:
G-actin [1] = experiment: MST, Las17 300-422 P387A / P388A to labelled G-actin; type: binding, rabbit; conditions: three repeats, not statistically significant
From the text: (§1) A Purified individual GST-tagged Sla1 SH3 domains were used to probe a Celluspot array consisting of a series of 12 amino acid peptides starting with residue 181, and subsequent peptides starting at two amino acid intervals, up to amino acid 540. Binding of GST-Sla1 SH3 to the array was identified by further probing of HRP-tagged anti-GST and subsequent visualisation using chemiluminescence. […] Error bars are standard error of mean.
The small reduction was not found to be statistically significant over three repeats.
(§2) Microscale Thermophoresis (MST) assays were performed as described previously. Briefly, rabbit muscle actin in G-buffer minus DTT was […] using Monolith NT^TM Protein Labelling Kit RED-Malemide (NanoTemper Technologies, Munich, Germany). […] Each reaction was then loaded into Monolith NT.115 Premium Treated Capillaries (NanoTemper Technologies) and thermophoresis was measured in a Monolith NT.115 Microscale Thermophoresis device (NanoTemper Technologies). Thermophoresis was measured at 20% red LED power and 40% IR laser power at 22°C. Fnorm was calculated from the ratio of fluorescence before heating and after the new equilibrium had been reached. […] Each experiment was carried out three separate times with protein from different protein preparations and mean ± SE shown except for Fig. 7a where mean ± SD is shown.

actin = experiment: Pyrene actin assay, actin polymerisation in the absence of Arp2/3; type: biochemical, rabbit; conditions: no Arp2/3, 300 nM fragment, 3 µM actin
Procedure: 300 nM each fragment; 3 µM actin. […] Error bars are standard error of mean.
Rabbit skeletal muscle actin was gel filtered as described. Concentrations of G-actin produced and used in experiments were in the range 35–65 µM.
(§3) Fluorometry assays were performed as described previously. 370 μl assays used 3 μM actin as indicated unless otherwise specified. Pyrene-actin was added to 5%, mixed thoroughly, and added to the fluorometry cuvette. Polymerization salts, 10× KME (500 mM KCl, 10 mM MgCl2, 10 mM EGTA, 100 mM Tris-HCl [pH 8.0]) were mixed with fragments or G buffer to give final concentration of 0.5× KME before reading fluorescence. […] Experiments were carried out three separate times with different protein preparations and a representative graph shown.

[2] = test system: Las17 and las17 P387A expressing yeast strains; experiment: Latrunculin-A halo assay on yeast; type: cell-based, Saccharomyces cerevisiae; conditions: 10 µl latrunculin-A disc, halo assay, 5 repeats
Procedure: Supplementary Information.
Methods used in Supplementary Data
Yeast strains, growth and staining
Yeast plasmids used in this study are listed in Supplementary table 1 and yeast strains used in Supplementary table 2. Unless stated otherwise, cells were grown with rotary shaking at 30°C in liquid YPD medium (1% yeast extract, 2% Bacto-peptone, 2% glucose supplemented with 40 μg/ml adenine) or in synthetic medium (0.67% yeast nitrogen base, 2% glucose) with appropriate supplements. Growth assays used solid medium with 2% agar added to above. All strains carrying fluorescent tags have growth properties similar to isogenic control strains with the exception of strains carrying dual reporters where lifetimes were longer for both wild type and mutant strains (in Figure 9D). Point mutations in LAS17 were generated using site directed mutagenesis (Agilent). DNA cassettes carrying mutations for integration were transformed into KAY1801. Mutant colonies were counter-selected on minimal medium, containing 0.005% uracil and 0.1% 5’-Fluoroorotic Acid (5-FOA; Melford labs). […]
expressing strains on plates on which a disc carrying 10 µl of latrunculin-A of varying concentrations was placed (white disc). […] They were then scored according to the extent of uptake and categorised according to the key shown. >100 cells were visualised for each strain in each of 3 independent experiments. […]

[3] = target: Las17 PPR-N fragment (residues 300-422), wild type (S. cerevisiae) (UniProt Q12446); experiment: BLI; Octet R2 (Sartorius); Octet NTA Biosensors or Octet GST Biosensors, which partner was loaded is not stated; repeated three times; the constant of SH3#1-3 is called apparent
[4] = test system: Las17 PPR-N fragment (residues 300-422); experiment: Biolayer Interferometry (BLI), Sla1 SH3 domains to Las17 PPR-N; type: binding, Saccharomyces cerevisiae; conditions: Biolayer Interferometry
From the text: (§4) To investigate binding characteristics of the SH3 domains further, Sla1 SH3 protein domains were purified. Three Sla1 SH3 single domains, tandem domains Sla1 SH3#1&2, Sla1 SH3#1&2 W108A (in which the W108A mutation prevents proline motif binding by SH3#2 but not SH3#1) and a fragment with all three SH3 domains were expressed recombinantly and purified. […] This outcome is in line with original research of Rodal and colleagues and with more recent studies of avidity developed by Williamson, which highlighted the importance of tandem binding SH3 domains[13],[27].
Biolayer Interferometry (BLI) assays were performed using an OctetⓇ R2 (Sartorius). Protein samples were placed into the wells of a polystyrene plate (ProxiPlateTM, Perkin Elmer) and binding measured either with Octet NTA Biosensors or Octet GST Biosensors. Screening assays were performed to determine the optimum loading concentration and time for each binding pair to ensure that the probe was not saturated. All experiments were repeated three times, each time with newly prepared protein. Analysis and visualisation were performed using GraphPad Prism 10.0.2.

Las17 = experiment: Microscale thermophoresis, Sla1 SH3#2 to Las17; type: binding, Saccharomyces cerevisiae; conditions: could not be saturated within the concentration range
From the text: as §4, §2

[5] = test system: Las17 12mer peptides / GST-Sla1 SH3 domains; experiment: Peptide spot array (Celluspot) of Las17 12mers probed with GST-Sla1 SH3 domains; type: binding, Saccharomyces cerevisiae; conditions: GST-Sla1 SH3 domain on 12mer array, 2-residue offset, anti-GST HRP, chemiluminescence
Procedure: as §1
They were incubated with GST fused SH3 domains of Sla1 or with GST alone, as described in ref.[57]. Membranes were probed with HRP tagged anti-GST, and the presence of SH3-GST fusion protein was detected with ECL chemiluminescent detection solution (Thermo Fisher Scientific).

[6] = test system: Las17-Arp2/3 mediated actin polymerisation; conditions: 15 nM Las17, 1 µM Sla1 SH3 domains, ref [13]; cited from earlier work
From the text: In Sla1 the first two SH3 domains are immediately juxtaposed with no linker. There are then 236 residues before the third SH3 domain (Fig. 1A).

G-actin [7] = experiment: MST, Las17 300-422 to labelled G-actin in presence or absence of Sla1 SH3#1-3 (competition); type: binding, rabbit; conditions: Sla1 SH3#1-3 4.5 µM, actin 50 nM, Las17(300–422) 0.29-9.5 µM
Procedure: The experiment was then repeated with the addition of Sla1 SH3#1-3 fragment at 4.5 µM.
Error bars are standard deviation.
Microscale Thermophoresis (MST) assays were performed as described previously[15]. Briefly, rabbit muscle actin in G-buffer minus DTT was lysine labelled using Monolith NT^TM Protein Labelling Kit RED-Malemide (NanoTemper Technologies, Munich, Germany). […] Each reaction was then loaded into Monolith NT.115 Premium Treated Capillaries (NanoTemper Technologies) and thermophoresis was measured in a Monolith NT.115 Microscale Thermophoresis device (NanoTemper Technologies). Thermophoresis was measured at 20% red LED power and 40% IR laser power at 22°C. Fnorm was calculated from the ratio of fluorescence before heating and after the new equilibrium had been reached.

[8] = test system: Las17-Arp2/3 mediated actin polymerisation; experiment: Pyrene actin assay, inhibition of Las17-Arp2/3 mediated actin polymerisation by Sla1 SH3 domains; type: biochemical; conditions: Actin 3 µM, Las17 300 nM, Sla1 SH3 domains 300 nM each (1:1), with Arp2/3
Procedure: SH3 domains of Sla1 are numbered #1, #2 and #3. […] PP in pink boxes indicate poly-proline tracts in this region. Other regions of Las17 are included but not to scale. B Representative pyrene actin assays show inhibition of Las17-Arp2/3 mediated actin polymerisation by Sla1-SH3 domains when added as separate domains (orange #1, green #2 or cyan #3) or on a single peptide (red). […] Sla1 SH3#1 (aa 3-68), SH3#3 (aa 354-413), SH3#1-2 (aa 5-131), SH3#1-3 (aa 5-413).
as §3

Molecule: Las17 (300–422) P388A: Las17 (300–422) with P388A mutation
- effect on actin binding (G-actin [1]): little change in actin binding

Molecule: Las17(342–392): minimal Las17 fragment with two arginine-pair actin sites, left on GST tag
- stimulation of Arp2/3-independent actin polymerisation (actin): unable to stimulate Arp2/3-independent actin polymerisation

Molecule: C/C1=C/C(=O)O[C@@H]2C[C@@H](CC[C@H](C)/C=C\C=C\CC1)O[C@@](O)([C@@H]1CSC(=O)N1)C2 [latrunculin-A, reference compound]
- increase in Lat-A sensitivity of las17 P387A compared to wild type [2]: 7 fold

Molecule: Las17(300–633): Las17 fragment containing both PPR and VCA
- stimulation of Arp2/3-independent actin polymerisation (actin): able to stimulate actin polymerisation in the absence of Arp2/3

Molecule: Sla1 SH3#1&2 W108A (domain or fragment)
- Kd [3]: 7.4 µM

Molecule: Las17 (300–422) P387A: Las17 (300–422) with P387A mutation
- effect on actin binding (G-actin [1]): little change in actin binding

B1: Sla1 SH3#2: second SH3 domain of Sla1, GST-Sla1 SH3#2 in pGEX4T1 (protein)
chain: PVLKKVRAIYDYEQVQNADEELTFHENDVFDVFDDKDADWLLVKSTVSNEFGFIPGNYVEPENG
modifications: left off: GST, end not stated, cleaved
notes: second SH3 domain of Sla1, GST-Sla1 SH3#2 in pGEX4T1
- binding ([4]; result in words): showed no binding
- binding (Las17): weak binding was detected
- binding to Las17 peptide spots [5]: only showed weak binding to spots
- inhibition of actin polymerisation activity [6]: about 80%

B2: Sla1 SH3#1-3: SH3#1-3 (aa 5-413), fragment with all three SH3 domains (protein)
chain: LGIYRAVYAYEPQTPEELAIQEDDLLYLLQKSDIDDWWTVKKRVIGSDSEEPVGLVPSTYIEEAPVLKKVRAIYDYEQVQNADEELTFHENDVFDVFDDKDADWLLVKSTVSNEFGFIPGNYVEPENGSTSKQEQAPAAAEAPAATPAAAPASAAVLPTNFLPPPQHNDRARMMQSKEDQAPDEDEEGPPPAMPARPTATTETTDATAAAVRSRTRLSYSDNDNDDEEDDYYYNSNSNNVGNHEYNTEYHSWNVTEIEGRKKKKAKLSIGNNKINFIPQKGTPHEWSIDKLVSYDNEKKHMFLEFVDPYRSLELHTGNTTTCEEIMNIIGEYKGASRDPGLREVEMASKSKKRGIVQYDFMAESQDELTIKSGDKVYILDDKKSKDWWMCQLVDSGKSGLVPAQFIEPV
modifications: left off: GST, end not stated, cleaved
notes: SH3#1-3 (aa 5-413), fragment with all three SH3 domains
- Kd ([4]; Octet R2, Las17 (aa 300-422), three repeats with newly prepared protein, read-out: binding affinity (Kd)): 0.039 µM
- fold change in apparent Kd of actin for Las17 (G-actin [7]): 40 fold
- fold change in apparent Kd of actin for Las17 (G-actin [7]; listed as Sla1): 40.6 fold
- inhibition of Las17-Arp2/3 mediated actin polymerisation [8]: substantial inhibition of actin polymerisation
- inhibition of actin polymerisation activity [6]: about 85%
